{"source": "paper PMC2940942", "about": "(Journal of Molecular Biology, 2009)", "binders": {"B1": {"name": "CD147^10mer peptide (CD147 residues 205–214) (peptide)", "peptide": "GSHLAALWPFLG"}, "B2": {"name": "CD147^22–269 (isoform 2 without the signal peptide) (receptor)", "chain": "AAGTVFTTVEDLGSKILLTCSLNDSATEVTGHRWLKGGVVLKEDALPGQKTEFKVDSDDQWGEYSCVFLPEPMGTANIQLHGPPRVKAVKSSEHINEGETAMLVCKSESVPPVTDWAWYKITDSEDKALMNGSESRFFVSSSQGRSELHIENLNMEADPGQYRCNGTSSKGSDQAIITLRVRSHLAALWPFLGIVAEVLVLVTIIFIYEKRRKPEDVLDDDDAGSAPLKSSGQHQNDKGKNVRQRNSS"}, "B3": {"name": "CD147^22–214 (domain or fragment)", "chain": "AAGTVFTTVEDLGSKILLTCSLNDSATEVTGHRWLKGGVVLKEDALPGQKTEFKVDSDDQWGEYSCVFLPEPMGTANIQLHGPPRVKAVKSSEHINEGETAMLVCKSESVPPVTDWAWYKITDSEDKALMNGSESRFFVSSSQGRSELHIENLNMEADPGQYRCNGTSSKGSDQAIITLRVRSHLAALWPFLG"}}, "key": {"cyclophilin A [1]": {"target": "T1, cyclophilin A (UniProt P62937 1-165)", "assay": "NMR titration"}, "SEC": {"target": "the molecule itself", "assay": "SEC"}, "cyclophilin A [2]": {"target": "T1, cyclophilin A", "assay": "NMR titration", "remark": "listed apart in the source"}}, "note": "Where two headings read alike, the source gives them in different places.", "data": [{"binder": "B1", "values": [{"measurement": "Kd", "setting": "cyclophilin A [1]", "value": "4.2 ± 0.2", "unit": "mM"}]}, {"binder": "B2", "values": [{"measurement": "binding result", "setting": "SEC", "value": "binds"}]}, {"binder": "B3", "values": [{"measurement": "Kd", "setting": "cyclophilin A [2]", "value": "> 1", "unit": "mM"}]}]}
